# Measurements reported in patent US12679878B2, “CRF2 receptor agonists and their use in therapy” (SANOFI, priority 2020, dated 2026).
# Starred links: 1 amine or outer side, 2 acyl side, 3 side chain; linkers in the order of their positions; H or OH if unused. Non-standard residues stand in square brackets, D forms with d. Groups on a side chain read outwards from the residue. No end group written: not given here. *: point of attachment. C18 diacid = O=C(O)CCCCCCCCCCCCCCCCC(=O)*; γGlu = O=C(O)[C@H](CCC(=O)[*:2])N[*:1]; AEEA = NCCOCCOCC(=O)O; Aib = CC(C)(N)C(=O)O
# T1: anti-target CRF1R receptor (UniProt P34998 24-415, limits assumed)
# T1 sequence (looked up): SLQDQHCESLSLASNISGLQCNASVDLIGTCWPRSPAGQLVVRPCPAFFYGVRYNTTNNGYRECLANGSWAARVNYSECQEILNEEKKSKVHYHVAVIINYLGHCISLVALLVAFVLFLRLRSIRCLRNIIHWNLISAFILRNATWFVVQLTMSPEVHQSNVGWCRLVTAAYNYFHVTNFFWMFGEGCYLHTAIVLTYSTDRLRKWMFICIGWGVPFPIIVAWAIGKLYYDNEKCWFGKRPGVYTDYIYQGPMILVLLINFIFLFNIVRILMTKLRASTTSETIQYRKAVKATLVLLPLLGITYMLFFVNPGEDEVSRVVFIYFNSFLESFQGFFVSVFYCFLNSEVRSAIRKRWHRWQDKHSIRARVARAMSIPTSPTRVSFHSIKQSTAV
# B1: peptide of SEQ ID NO: 132 (peptide)
# peptide: IVLSLD[dV]PIKLK([AEEA-AEEA-γGlu-C18 diacid])QILLEQERQK[Aib]QREQAEKNKQILERV-NH2
# modifications: N-terminus assumed
# SMILES: CC[C@H](C)[C@H](N)C(=O)N[C@H](C(=O)N[C@@H](CC(C)C)C(=O)N[C@@H](CO)C(=O)N[C@@H](CC(C)C)C(=O)N[C@@H](CC(=O)O)C(=O)N[C@@H](C(=O)N1CCC[C@H]1C(=O)N[C@H](C(=O)N[C@@H](CCCCN)C(=O)N[C@@H](CC(C)C)C(=O)N[C@@H](CCCCNC(=O)COCCOCCNC(=O)COCCOCCNC(=O)CC[C@H](NC(=O)CCCCCCCCCCCCCCCCC(=O)O)C(=O)O)C(=O)N[C@@H](CCC(N)=O)C(=O)N[C@H](C(=O)N[C@@H](CC(C)C)C(=O)N[C@@H](CC(C)C)C(=O)N[C@@H](CCC(=O)O)C(=O)N[C@@H](CCC(N)=O)C(=O)N[C@@H](CCC(=O)O)C(=O)N[C@@H](CCCNC(=N)N)C(=O)N[C@@H](CCC(N)=O)C(=O)N[C@@H](CCCCN)C(=O)NC(C)(C)C(=O)N[C@@H](CCC(N)=O)C(=O)N[C@@H](CCCNC(=N)N)C(=O)N[C@@H](CCC(=O)O)C(=O)N[C@@H](CCC(N)=O)C(=O)N[C@@H](C)C(=O)N[C@@H](CCC(=O)O)C(=O)N[C@@H](CCCCN)C(=O)N[C@@H](CC(N)=O)C(=O)N[C@@H](CCCCN)C(=O)N[C@@H](CCC(N)=O)C(=O)N[C@H](C(=O)N[C@@H](CC(C)C)C(=O)N[C@@H](CCC(=O)O)C(=O)N[C@@H](CCCNC(=N)N)C(=O)N[C@H](C(N)=O)C(C)C)[C@@H](C)CC)[C@@H](C)CC)[C@@H](C)CC)C(C)C)C(C)C
# B2: peptide of SEQ ID NO: 164 (peptide)
# peptide: Ac-IVLSLD[dV]PIGLK([AEEA-AEEA-γGlu-C18 diacid])QILLEQERQK[Aib]QREQAEKNKQILEQV-NH2
# SMILES: CC[C@H](C)[C@H](NC(C)=O)C(=O)N[C@H](C(=O)N[C@@H](CC(C)C)C(=O)N[C@@H](CO)C(=O)N[C@@H](CC(C)C)C(=O)N[C@@H](CC(=O)O)C(=O)N[C@@H](C(=O)N1CCC[C@H]1C(=O)N[C@H](C(=O)NCC(=O)N[C@@H](CC(C)C)C(=O)N[C@@H](CCCCNC(=O)COCCOCCNC(=O)COCCOCCNC(=O)CC[C@H](NC(=O)CCCCCCCCCCCCCCCCC(=O)O)C(=O)O)C(=O)N[C@@H](CCC(N)=O)C(=O)N[C@H](C(=O)N[C@@H](CC(C)C)C(=O)N[C@@H](CC(C)C)C(=O)N[C@@H](CCC(=O)O)C(=O)N[C@@H](CCC(N)=O)C(=O)N[C@@H](CCC(=O)O)C(=O)N[C@@H](CCCNC(=N)N)C(=O)N[C@@H](CCC(N)=O)C(=O)N[C@@H](CCCCN)C(=O)NC(C)(C)C(=O)N[C@@H](CCC(N)=O)C(=O)N[C@@H](CCCNC(=N)N)C(=O)N[C@@H](CCC(=O)O)C(=O)N[C@@H](CCC(N)=O)C(=O)N[C@@H](C)C(=O)N[C@@H](CCC(=O)O)C(=O)N[C@@H](CCCCN)C(=O)N[C@@H](CC(N)=O)C(=O)N[C@@H](CCCCN)C(=O)N[C@@H](CCC(N)=O)C(=O)N[C@H](C(=O)N[C@@H](CC(C)C)C(=O)N[C@@H](CCC(=O)O)C(=O)N[C@@H](CCC(N)=O)C(=O)N[C@H](C(N)=O)C(C)C)[C@@H](C)CC)[C@@H](C)CC)[C@@H](C)CC)C(C)C)C(C)C
# B3: peptide of SEQ ID NO: 146 (peptide)
# peptide: FTLSLDVPIKLK([AEEA-AEEA-γGlu-C18 diacid])QILLKQERQKKQRQKAKKNKQILERV-NH2
# modifications: N-terminus assumed
# SMILES: CC[C@H](C)[C@H](NC(=O)[C@H](CCC(N)=O)NC(=O)[C@H](CCCCNC(=O)COCCOCCNC(=O)COCCOCCNC(=O)CC[C@H](NC(=O)CCCCCCCCCCCCCCCCC(=O)O)C(=O)O)NC(=O)[C@H](CC(C)C)NC(=O)[C@H](CCCCN)NC(=O)[C@@H](NC(=O)[C@@H]1CCCN1C(=O)[C@@H](NC(=O)[C@H](CC(=O)O)NC(=O)[C@H](CC(C)C)NC(=O)[C@H](CO)NC(=O)[C@H](CC(C)C)NC(=O)[C@@H](NC(=O)[C@@H](N)Cc1ccccc1)[C@@H](C)O)C(C)C)[C@@H](C)CC)C(=O)N[C@@H](CC(C)C)C(=O)N[C@@H](CC(C)C)C(=O)N[C@@H](CCCCN)C(=O)N[C@@H](CCC(N)=O)C(=O)N[C@@H](CCC(=O)O)C(=O)N[C@@H](CCCNC(=N)N)C(=O)N[C@@H](CCC(N)=O)C(=O)N[C@@H](CCCCN)C(=O)N[C@@H](CCCCN)C(=O)N[C@@H](CCC(N)=O)C(=O)N[C@@H](CCCNC(=N)N)C(=O)N[C@@H](CCC(N)=O)C(=O)N[C@@H](CCCCN)C(=O)N[C@@H](C)C(=O)N[C@@H](CCCCN)C(=O)N[C@@H](CCCCN)C(=O)N[C@@H](CC(N)=O)C(=O)N[C@@H](CCCCN)C(=O)N[C@@H](CCC(N)=O)C(=O)N[C@H](C(=O)N[C@@H](CC(C)C)C(=O)N[C@@H](CCC(=O)O)C(=O)N[C@@H](CCCNC(=N)N)C(=O)N[C@H](C(N)=O)C(C)C)[C@@H](C)CC
# B4: peptide of SEQ ID NO: 165 (peptide)
# peptide: Ac-IVLSLD[dV]PIKLK([AEEA-AEEA-γGlu-C18 diacid])QILLEQARQK[Aib]QREQAEKNEQILEQV-NH2
# SMILES: CC[C@H](C)[C@H](NC(C)=O)C(=O)N[C@H](C(=O)N[C@@H](CC(C)C)C(=O)N[C@@H](CO)C(=O)N[C@@H](CC(C)C)C(=O)N[C@@H](CC(=O)O)C(=O)N[C@@H](C(=O)N1CCC[C@H]1C(=O)N[C@H](C(=O)N[C@@H](CCCCN)C(=O)N[C@@H](CC(C)C)C(=O)N[C@@H](CCCCNC(=O)COCCOCCNC(=O)COCCOCCNC(=O)CC[C@H](NC(=O)CCCCCCCCCCCCCCCCC(=O)O)C(=O)O)C(=O)N[C@@H](CCC(N)=O)C(=O)N[C@H](C(=O)N[C@@H](CC(C)C)C(=O)N[C@@H](CC(C)C)C(=O)N[C@@H](CCC(=O)O)C(=O)N[C@@H](CCC(N)=O)C(=O)N[C@@H](C)C(=O)N[C@@H](CCCNC(=N)N)C(=O)N[C@@H](CCC(N)=O)C(=O)N[C@@H](CCCCN)C(=O)NC(C)(C)C(=O)N[C@@H](CCC(N)=O)C(=O)N[C@@H](CCCNC(=N)N)C(=O)N[C@@H](CCC(=O)O)C(=O)N[C@@H](CCC(N)=O)C(=O)N[C@@H](C)C(=O)N[C@@H](CCC(=O)O)C(=O)N[C@@H](CCCCN)C(=O)N[C@@H](CC(N)=O)C(=O)N[C@@H](CCC(=O)O)C(=O)N[C@@H](CCC(N)=O)C(=O)N[C@H](C(=O)N[C@@H](CC(C)C)C(=O)N[C@@H](CCC(=O)O)C(=O)N[C@@H](CCC(N)=O)C(=O)N[C@H](C(N)=O)C(C)C)[C@@H](C)CC)[C@@H](C)CC)[C@@H](C)CC)C(C)C)C(C)C
# B5: peptide of SEQ ID NO: 136 (peptide)
# peptide: IVLSLD[dV]PIKLK([AEEA-AEEA-γGlu-C18 diacid])QILLKQERQKK[Aib]RQKAEKNKQILAQV-NH2
# modifications: N-terminus assumed
# SMILES: CC[C@H](C)[C@H](N)C(=O)N[C@H](C(=O)N[C@@H](CC(C)C)C(=O)N[C@@H](CO)C(=O)N[C@@H](CC(C)C)C(=O)N[C@@H](CC(=O)O)C(=O)N[C@@H](C(=O)N1CCC[C@H]1C(=O)N[C@H](C(=O)N[C@@H](CCCCN)C(=O)N[C@@H](CC(C)C)C(=O)N[C@@H](CCCCNC(=O)COCCOCCNC(=O)COCCOCCNC(=O)CC[C@H](NC(=O)CCCCCCCCCCCCCCCCC(=O)O)C(=O)O)C(=O)N[C@@H](CCC(N)=O)C(=O)N[C@H](C(=O)N[C@@H](CC(C)C)C(=O)N[C@@H](CC(C)C)C(=O)N[C@@H](CCCCN)C(=O)N[C@@H](CCC(N)=O)C(=O)N[C@@H](CCC(=O)O)C(=O)N[C@@H](CCCNC(=N)N)C(=O)N[C@@H](CCC(N)=O)C(=O)N[C@@H](CCCCN)C(=O)N[C@@H](CCCCN)C(=O)NC(C)(C)C(=O)N[C@@H](CCCNC(=N)N)C(=O)N[C@@H](CCC(N)=O)C(=O)N[C@@H](CCCCN)C(=O)N[C@@H](C)C(=O)N[C@@H](CCC(=O)O)C(=O)N[C@@H](CCCCN)C(=O)N[C@@H](CC(N)=O)C(=O)N[C@@H](CCCCN)C(=O)N[C@@H](CCC(N)=O)C(=O)N[C@H](C(=O)N[C@@H](CC(C)C)C(=O)N[C@@H](C)C(=O)N[C@@H](CCC(N)=O)C(=O)N[C@H](C(N)=O)C(C)C)[C@@H](C)CC)[C@@H](C)CC)[C@@H](C)CC)C(C)C)C(C)C
# Molecular target: rat CRF2R α receptor (rat, UniProt P47866 20-411)
# Assay: cell-based or functional assay
# Sequence of rat CRF2R α receptor (P47866 20-411): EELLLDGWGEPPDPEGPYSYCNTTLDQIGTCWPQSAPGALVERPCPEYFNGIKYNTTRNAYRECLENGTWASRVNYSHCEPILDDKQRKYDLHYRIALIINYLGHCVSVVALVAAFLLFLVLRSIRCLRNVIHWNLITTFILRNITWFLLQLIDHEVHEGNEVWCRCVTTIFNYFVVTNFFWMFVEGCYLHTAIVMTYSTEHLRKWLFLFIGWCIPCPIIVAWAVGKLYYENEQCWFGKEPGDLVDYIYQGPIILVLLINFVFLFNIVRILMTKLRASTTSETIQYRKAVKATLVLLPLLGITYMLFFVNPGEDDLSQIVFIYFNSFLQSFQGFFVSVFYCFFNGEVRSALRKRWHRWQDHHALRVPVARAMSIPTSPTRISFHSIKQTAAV
row,"EC50 [nM], 0% HSA (cAMP, A7R5 cells) [nM]",Binder
1,0.79,B1
2,12.6,B2
3,0.22,B3
4,2.41,B4
5,0.38,B5

# Molecular target: T1, anti-target CRF1R receptor
# Assay: cell-based or functional assay
"EC50[nM] 0% HSA (cAMP, CRF1R-overexpression CHO cells) [nM]","Emax (%) (cAMP, CRF1R-overexpression CHO cells)",Binder
> 1000,36.9,B1
> 1000,25.8,B2
> 1000,1.03,B3
> 1000,26.9,B4
> 1000,21.8,B5
